The values that follow come from the nanobody polyreactivity screen of Harvey et al. (2022).

This data set in a line: yeast display, Sf9 membrane polyspecificity reagent, FACS + sequencing; frameworks hold sequencing errors. The method in brief:
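Sorting gates, low and high (top ~1%), were placed on anti-HA fluorescence to track expression and on streptavidin fluorescence to track reagent binding. A clone's polyreactivity label is taken from the gate it came out of. The reagent was 10% biotinylated, detergent-solubilized Sf9 membrane, applied for 1 hour at 4 °C to galactose-induced yeast display cells.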
On to “QVQLVESGGGIVQAGGSLRLSCAASGRTFAGYAMGWYRQAPGKERELVAGISVDDSTTYYADSVKGRFTISRDNANNTVYLQMISLKPEDTAVYYCNADYIDTFRGFDYWGQGTLVTVSS”, for which the “polyreactivity (PSR sort gate)” value is “low polyreactivity”. The entry for “QVQLVESGGGLVHAGGSLRISCAASGRTFSRNAMGWYRQAPGKERELVATISRRGGSTNYADSVKGRFTISRDYAKNTVYLQMNSLKPDDTAVYYCAAGYRVRDDKVYGIVRPMDYWGQGTQVTVSS” is “high polyreactivity”; for “QVQLEESGGGLVQAGGSLRLSCAASGIIFQRNDMGLYRQAPGKERELVANIRDGGITYADSVKGRFTISRDNAKNTVYLQMNSLKPEDTAVYYCARDDTSPGYCDQSSNAAYYYWGQGTQVTVSS” it is “low polyreactivity”.

For the sequence “QVQLVDSGGGLVQAGGSLRISCAASGLIFSKNVMGWYRQAPGKEREFVAAISQRGGSTYYADSVKGRFTISRDIAKNTVYLQMNSLKPEDTAVYYCAADNTVSHEDYWGQGTQVTVSS”, the “polyreactivity (PSR sort gate)” value is “high polyreactivity”. The same measure for “QVQIVESRGCLVQAGGSLRLICAASGSIFLANAMGWYRQAPRKEREFVPAITSSGGSTYYADSVKGRFTISRDNAKNSVYLQMNSLKPEDTAVYYCNVRPRYRWRSTPYGYWGQGTQVTVSS”: “high polyreactivity”; for “QVQLVESGGGLVQAGGSLRLSCAASGRTFPYYAMGWYRQAPGKERELVAAISSSGGSTYYADSVKGRFTISRDNAKYTVYLQMNSLKPEDTAVYYCAAVYQFIKWGDRYEYWGQGTQVTVSS”: “high polyreactivity”.

Take “QVQLVESGGGLVQAGGSLSLSCAASGSTYFYAMGWYRQAPGKERELVAAISFSDGITYYADSVKGRFTISRDNAKNTVYLQMNSLKPEDTAVYYCAADYISLREEDYWGQGTQVTVSS”: the “polyreactivity (PSR sort gate)” value is “high polyreactivity”.

For “QVQLVESGGGLVQAGGSLRLSCAASGRIFTYYTMGWYRQAPGKERELVAAISWSGGRTYYADSVKGRFTISRDNAKNTVYLQMNSLKPEDTAVYYCARLQDSRESPWRGYYWGQGTQVTVSS”, the “polyreactivity (PSR sort gate)” value is “high polyreactivity”. In the case of “QVQLVESGGGLVQAGGSLRLTCAASGLIFFTPYALGWYRQAPGTESELVAVITWRGASTYYADSVKGRFTISRDNAKHTVYFQMNSLKPEDTAVYYCAAKLCSVWKESYDSWGQGTQVTVSS”, the “polyreactivity (PSR sort gate)” value was “low polyreactivity”. The entry for “QVQLVESGRGLVQAGGSLRLSCAASGFTFAPNAMGWYRQAPGKDRELVARIDRAGSTYYADSVKGRFTISRDNAKNTVYLQMNSLKPEDTAVYYCATDYHGQPSPPYQSIKVDYWGQGTQVTVSS” is “low polyreactivity”; for “QVQLVESGGGLVQAGGSLRLSCAASGSTFGRYAMGWYRQAPGKERELVAAISWSGGSTHYADSVKGRFTISRDNAKNTVYLQMNSLKPEDTAVYYCAAYTFYSYDYWGQGSQVTVSS” it is “high polyreactivity”; for “QVQLVESGGGLVQAGGSLRLSCAASGTFAGNAMGWYRQAPGKERELVAAITTGGRTYYADSVKRRFTISRDNAKNTLYIQMNSLKPEDTAVYYCAADRIRDLEFDYWGQGTQVTVSS” it is “low polyreactivity”. The same measure for “QVQLVESGGGLVQAGGSLRLSCAASGFIFRRYAMGWYGQAPGKERELVAVIRSSGGSTYYADSVKGRFTISRDYAKNTVYLQMISLNPEDTAVYYCAAVSYSSYRYDYWGQGTQVTVSS”: “high polyreactivity”. For the sequence “QVQLVESGGGLVQAGGSLRLSCAASGSTLDRYVMGWYRQAPGKERELVAAISRNGGSTYYADSVKGRFTISRDNAKNTVYLQMNSLKPEDTAVYYCARYAGFPYTQGDYWGQGTQVTVSS”, the “polyreactivity (PSR sort gate)” value is listed as “high polyreactivity”. For the sequence “QVQLVESGGGLVQAGGSLRLSCAASGSIFRPNAMGWYRQAPGKERELVAAITFRGSRTYYADSVKGRFTISRDNAKNTVYLQMNSLKPEDTAVYYCNADYSSYWTSYDYWGQGTQVTVSS”, the “polyreactivity (PSR sort gate)” value is recorded as “high polyreactivity”. The same measure for “QVQLVESGGGLVQAGGSLRLSCAASGRTFVANAMGWYRQAPGKERELVAAITSTGSTYYADSVKGRFTISRDNAKNTVYLQMNSLKPEDTAVYYCATYYWLGLSLYDYWGQGSQVTVSS”: “low polyreactivity”; for “QVQLVESGGGLVQAGGSLRLSCAASGSIFRLNTKGGYRQAPGKERELVAAISNGGRTYYADSVTGRFTISRDNAKNTVYLQMNSLKPEDTAVYYCNVRYGRSKIYGYWGQGTQVTVSS”: “high polyreactivity”; for “QVQLVESGGGLVQAGGSLRLSCAASGSILYLNAMGWYRQAPGKERELVATISNGGSTNYADSVKGRFTISRDNAKNTVYLQMNSLKPEDTAVYYCAAASGGTVVGEGDYWGQGTQVTVSS”: “low polyreactivity”.

With “QVQLVESAGGLVQAGGSLRLSCAASGNTFWFYGMGWYRPAPGKVRELVAAITSGGSTDYPDSVKGRCTISRDNAKNTVYLQMNSLKPEDTALYYCAAEPVAYYGSSYGYWGQGTQVTVSS”, the “polyreactivity (PSR sort gate)” value is reported as “low polyreactivity”. The entry for “RVQLQESGGGLVQAGGSLRLSCAASGTIFIRGDMGWYRQAPGKEREFVATIDTGSNTYNADSEKGRFTISRDNAKNAVYLQMNCLKPGDTAVYYCVVDYQLSGRLRYWGQGTQVTLSS” is “low polyreactivity”; for “QVQLVESGGGLVQAGGSLRLSCAASGFTLGWYAMGWYRQAPGKERELVASINWDGGSTYYADSVKGRFTISRDNAKNTVYLQMNSLKPEDTAVYYCNAVNKWFPKVGYNYWGQGTQVTVSS” it is “high polyreactivity”. The entry for “QVQLVESGGGLVQAGGSLRLSCAASGRTFGKNAMGWYRQAPGKERELVAAISWSGGRTYYADSVKGRFTISRDNAKNTVYLQMNSLKPEDTAVYYCAAVRRRRNSYGYWGQGTQVNVSS” is “high polyreactivity”; for “QVQLVESGGGLVQAGGSLRLSCAASGIIFPYYAMGWYIQAPGKERELVASISSRGSSTYYADSVKGRFTISRDNAKNTVFLQMNSLKPEDTAVYYSAAQNFYRYYWGQGTQVTVSS” it is “high polyreactivity”.

For “QVQLVESGGGLVQAGGSLRLICAASGRTFGGNAMGWYRQAPGKERELVASITSRGGTTYYADSVKGRFTISRDNAKNTVYLQMNSLKPEDTAVYYCAALRRSSFGYWGQGTQVTVSS”, the “polyreactivity (PSR sort gate)” value was “high polyreactivity”.

Regarding “QVQLVESGGGLVQAGGSLRLSCAASGSIFGANTMGWYRQAPWKERELVAGITSRARTYYADSVKGRFTISRDNAKNTVYLQMNSLKPEDTAVYYCAAKYAWRRYGYWGQGTQVTVSS”, the “polyreactivity (PSR sort gate)” value is recorded as “high polyreactivity”. The same measure for “QVQLVESGGGIVQAGGSLRLSCAASGIIFWDNAMGWYRQAPGKERELVASINYSGGSTYYADSVKGRFTISRDNAKNTVYLQMNSLKPEDTAVYYCAARTVTLDDWDYAYDYWGQGTQVTVSS”: “low polyreactivity”.

Consider “QVQLVESGGGLVQAGGSLRLSCAASGSNSGYYVMGWYRQAPGKERELVAAITWRGGSTYYADSVKGRFTISRDNAKNTVYLQMNSLKPEDTAVYYCARSRYLWYTVPPKYGYWGQGTQVTVSS”, for which the “polyreactivity (PSR sort gate)” value is “high polyreactivity”. Turning to “QVQLVESGGGLVQAGGSLRLSCAASGRIFHGYAMGWYRQAPGKERELVGAINSSGGSTYYADSVKGRFTISRDNAKNTVYLQMNSLKPQDTAVYYCAADWVVSGNNPTVDTYFWYEYWGQGTQVTVSS”, the “polyreactivity (PSR sort gate)” value is “low polyreactivity”.

Take “QVQLVESGGGLVQAGGSLRLCCAASGSTFADNAMGWYRQAPGTDGEFVAGISTNGGSTYYADSVKGRFRISRDNAKTTVDCQLNSLKPEDTAVYDSAAVNYYDQYGDYYWGQGTQVTVSS”: the “polyreactivity (PSR sort gate)” value is “low polyreactivity”. The entry for “QVQLVESGGGLVQAGGSLRLSCAASGRIFLGNAMGWYRQAPGKERELVDAITYSGRSTYYADSVKGRFTISRDNAKNTVYLQMNSLKPEDTAVYYCAARQYWTTDLPFQRYYYWGQGTHVTVSS” is “low polyreactivity”. Turning to “QVQLVESGGGLVQAGGSLRLICAASGRTFQYNAMGWYRQAPGKERELVAAISARAGSTYYADSVKGRFTISRDNAKNTVYLQMNRLKPEDTAVYYCAARAWTRSVPYGFYYWGQGTQVTVSS”, the “polyreactivity (PSR sort gate)” value was “high polyreactivity”. Consider “HVQLVESGGGLVQAGGSLRLSCAASGSIFPRYSMGRYRQAPGKEMELVAAITSGGSTYYADSVKGRFTISRDNAKNTVYLQMNSLKPEDTAVYYCAATIYRPKGGTYGWYGYDYWGQGTQVTVSS”, for which the “polyreactivity (PSR sort gate)” value is “high polyreactivity”. The entry for “QVQLVESGGGIVQAGGSLRLSCPASGSIFDTYAMGWYRPAPGKEREMVASWSGGSTYYADSVKGRFTISRDNAKNTVYLQMISLKPEDTAVDYCAKDYYVQPPGTRDDYWGQGSQVTVSS” is “low polyreactivity”; for “QVQLVESGGGLVQAGGSLRLSCAASGRIFYYYAMGWYRQAPGKEREFVAAIRVTSDSTYYADSVKGRFTISRDNAKNTVYLQMNSLKPEDTAVYYCAADSFYFPYDYWGQGTQVTVSS” it is “high polyreactivity”; for “QVQLVESGGPLVQAGGSLLLSCAASGFTFTVYAKGWYRQAPGKERELVAAITYNGGSTYYADSVKGRFTISRDNAKNTVYLQMNSLKPEDTAVYYCAAEVFLRSLGYWYDFWGLGTQVTVSS” it is “high polyreactivity”. Consider “QVQLVESGGGLVQAGGSLRLSCAASGRIFTTYALGWYRQAPGKERELVATITSGGDTSYADSVKGRFTISRDNAKNTVYLQMNSLKPEDTAVYYCNVGASLDQCSIPFEGYYYWGQGTQVTVSS”, for which the “polyreactivity (PSR sort gate)” value is listed as “low polyreactivity”. Consider “QVQLVESGGGLVQAGGSLRLSCAASGYILYGNTMGWYRQAAGKERELVAVISGGGSTNYADSVKGRFTISRDNAKNTVYLQMNSLKPQDTAVYYCAVKTNQAGYDYWGQGTQVTVSS”, for which the “polyreactivity (PSR sort gate)” value is “low polyreactivity”. In the case of “QVQLVESGGGLVQAGGSLRLSCAASGRTFSSYAMGWYRQAPGKERELVADINRSGGSTYYADSVKGRFTISRDNAKNTVYLQMNSLKPEDTAVYYCNVRIWPWYGYDYWGQGTQVTVSS”, the “polyreactivity (PSR sort gate)” value is recorded as “low polyreactivity”. The entry for “QVQLVESGGGLVQAGGSLRLSCAASGSIFYYYAMGWYRQAPGKERELVAAITSGGRTKYADSVKGRFTISRDNAKNTVYLQMNSLKPEDTAVYYCATRAIWAYSTGYDYWGQGTQVTVSS” is “high polyreactivity”. Consider “QVQLVESVGGLVQAGGSLRLSCAASGSIFSYYAMGWYRQAPGKERELVAAITISGSSTYYADSVKGRFTISRDNAKNTVYLQMNSLKPEDTAVYYCNARTIRNWSGQHIYDYWGQGTQVTVSS”, for which the “polyreactivity (PSR sort gate)” value is “high polyreactivity”. Regarding “QVQLVESGGGLVQAGGSLRLSCAASGITFPYYAMGWYRQAPGKERELVAAISSGGSTNYADSVKGRFTISRDNAKNTVYLQMNSLKPEDTAVYYCNADVRSYFYDYWGQGTQVTVSS”, the “polyreactivity (PSR sort gate)” value is listed as “low polyreactivity”.
